One protein from patent publication US20090111754 can be followed below.

Data set [1] concerns the target T1, p65-P8.
T1 chain: NGLLSGDEDFSA

For data set [2], the target named is T2, p65-P1.
T2 chain: QLRRPSDRELSE

Data set [3] deals with T3, p65-P7.
T3 chain: NGLLAGDEDFSS

Data set [4] has as its target p65-P2.
Data set [5] addresses T4, p65-P6.
T4 chain: NGLLSGDEDFSS

B1: IKK complex immunoprecipitated from whole-cell extracts of TNF-treated cells (protein)
chain 1: MERPPGLRPGAGGPWEMRERLGTGGFGNVCLYQHRELDLKIAIKSCRLELSTKNRERWCHEIQIMKKLNHANVVKACDVPEELNILIHDVPLLAMEYCSGGDLRKLLNKPENCCGLKESQILSLLSDIGSGIRYLHENKIIHRDLKPENIVLQDVGGKIIHKIIDLGYAKDVDQGSLCTSFVGTLQYLAPELFENKPYTATVDYWSFGTMVFECIAGYRPFLHHLQPFTWHEKIKKKDPKCIFACEEMSGEVRFSSHLPQPNSLCSLVVEPMENWLQLMLNWDPQQRGGPVDLTLKQPRCFVLMDHILNLKIVHILNMTSAKIISFLLPPDESLHSLQSRIERETGINTGSQELLSETGISLDPRKPASQCVLDGVRGCDSYMVYLFDKSKTVYEGPFASRSLSDCVNYIVQDSKIQLPIIQLRKVWAEAVHYVSGLKEDYSRLFQGQRAAMLSLLRYNANLTKMKNTLISASQQLKAKLEFFHKSIQLDLERYSEQMTYGISSEKMLKAWKEMEEKAIHYAEVGVIGYLEDQIMSLHAEIMELQKSPYGRRQGDLMESLEQRAIDLYKQLKHRPSDHSYSDSTEMVKIIVHTVQSQDRVLKELFGHLSKLLGCKQKIIDLLPKVEVALSNIKEADNTVMFMQGKRQKEIWHLLKIACTQSSARSLVGSSLEGAVTPQTSAWLPPTSAEHDHSLSCVVTPQDGETSAQMIEENLNCLGHLSTIIHEANEEQGNSMMNLDWSWLTE
chain 2: MSWSPSLTTQTCGAWEMKERLGTGGFGNVIRWHNQETGEQIAIKQCRQELSPRNRERWCLEIQIMRRLTHPNVVAARDVPEGMQNLAPNDLPLLAMEYCQGGDLRKYLNQFENCCGLREGAILTLLSDIASALRYLHENRIIHRDLKPENIVLQQGEQRLIHKIIDLGYAKELDQGSLCTSFVGTLQYLAPELLEQQKYTVTVDYWSFGTLAFECITGFRPFLPNWQPVQWHSKVRQKSEVDIVVSEDLNGTVKFSSSLPYPNNLNSVLAERLEKWLQLMLMWHPRQRGTDPTYGPNGCFKALDDILNLKLVHILNMVTGTIHTYPVTEDESLQSLKARIQQDTGIPEEDQELLQEAGLALIPDKPATQCISDGKLNEGHTLDMDLVFLFDNSKITYETQISPRPQPESVSCILQEPKRNLAFFQLRKVWGQVWHSIQTLKEDCNRLQQGQRAAMMNLLRNNSCLSKMKNSMASMSQQLKAKLDFFKTSIQIDLEKYSEQTEFGITSDKLLLAWREMEQAVELCGRENEVKLLVERMMALQTDIVDLQRSPMGRKQGGTLDDLEEQARELYRRLREKPRDQRTEGDSQEMVRLLLQAIQSFEKKVRVIYTQLSKTVVCKQKALELLPKVEEVVSLMNEDEKTVVRLQEKRQKELWNLLKIACSKVRGPVSGSPDSMNASRLSQPGQLMSQPSTASNSLPEPAKKSEELVAEAHNLCTLLENAIQDTVREQDQSFTALDWSWLQTEEEEHSCLEQAS
On to B1, for which the “phosphorylation of peptide substrate in immunocomplex kinase assay” value is “p65-peptides in which Ser 276, 529 or 536 were mutated into alanine did not undergo phosphorylation by the IKK complex” in data set [1]; “precipitated IKK complex can phosphorylate p65-P1 and p65-p6” in data set [2]; “p65-peptides in which Ser 276, 529 or 536 were mutated into alanine did not undergo phosphorylation by the IKK complex” in data set [3]; “p65-peptides in which Ser 276, 529 or 536 were mutated into alanine did not undergo phosphorylation by the IKK complex” in data set [4]; “precipitated IKK complex can phosphorylate p65-P1 and p65-p6” in data set [5].
